Assay results: patent publication US20200148771A1 (HARPOON THERAPEUTICS, published 2020)

T1: CTLA4 (Acro Biosystems), coated on plate (UniProt P16410 37-162, limits assumed)
T1 construct: Bought antigen; the construct is not described; also called target antigen
T1 sequence (looked up): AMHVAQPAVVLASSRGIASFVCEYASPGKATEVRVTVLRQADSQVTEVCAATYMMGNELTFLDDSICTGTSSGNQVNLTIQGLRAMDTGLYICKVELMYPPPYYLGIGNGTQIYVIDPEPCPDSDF

B1: Dace-ProMonoMab, matriptase-treated (active form) (antibody, V domains shown)
VH: EVQLVESGGGLVQPGGSLRLSCAASGYSFTGYYIHWVRQAPGKGLEWVARVIPNAGGTSYNQKFKGRFTLSVDNSKNTAYLQMNSLRAEDTAVYYCAREGIYWWGQGTLVTVSS
VL: DIQMTQSPSSLSASVGDRVTITCRSSQSLVHSNGNTFLHWYQQKPGKAPKLLIYTVSNRFSGVPSRFSGSGSGTDFTLTISSLQPEDFATYFCSQTTHVPWTFGQGTKVEIKG
notes: Same chains as the prodrug, treated overnight with 40 nM recombinant human matriptase; also called protease-treated
B2: Seli-ProMonoMab, matriptase-treated (active form) (antibody, V domains shown)
VH: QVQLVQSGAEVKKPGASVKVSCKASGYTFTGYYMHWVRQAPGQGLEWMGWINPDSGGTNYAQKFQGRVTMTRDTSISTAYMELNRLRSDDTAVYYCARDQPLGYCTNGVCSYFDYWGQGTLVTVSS
VL: DIQMTQSPSSVSASVGDRVTITCRASQGIYSWLAWYQQKPGKAPNLLIYTASTLQSGVPSRFSGSGSGTDFTLTISSLQPEDFATYYCQQANIFPLTFGGGTKVEIKG
notes: Same chains as the prodrug, treated overnight with 40 nM recombinant human matriptase
B3: Treme-ProMonoMab, matriptase-treated (active form) (antibody, V domains shown)
VH: QVQLVESGGGVVQPGRSLRLSCAASGFTFSSYGMHWVRQAPGKGLEWVAVIWYDGSNKYYADSVKGRFTISRDNSKNTLYLQMNSLRAEDTAVYYCARDPRGATLYYYYYGMDVWGQGTTVTVSS
VL: DIQMTQSPSSLSASVGDRVTITCRASQSINSYLDWYQQKPGKAPKLLIYAASSLQSGVPSRFSGSGSGTDFTLTISSLQPEDFATYYCQQYYSTPFTFGPGTKVEIKG
notes: as for B1

Columns and labels:
[1] = target: T2, CD40 (Acro Biosystems), coated on plate (UniProt P25942 21-193); assay: ELISA, CD40 coated at 1 µg/ml, detection with anti-human IgG-Fc-peroxidase
T2 construct: Bought antigen; the construct is not described; also called target antigen
Experimental: (§1) The affinities of the exemplary monovalent antibodies, in the prodrug and activated forms, were measured by an ELISA assay. Briefly, target antigens, CD40 or CTLA4 (both from Acro Biosystems), were coated at 1 μg/ml in a Nunc MaxiSorp plate (ThermoFisher) for 1 hour and blocked with SuperBlock (ThermoFisher). The exemplary monovalent antibodies, whether intact or matriptase-activated, were added at concentrations ranging from 0.001 to 1000 nM, as indicated in the x-axis of each plot shown in FIG. 4, and incubated for 1 hour at room temperature. Plates were washed 3 times using PBS supplemented with 0.05% Tween-20 (PBS-T). Goat anti-human IgG-Fc-peroxidase conjugate antibody (Sigma) was used at 1:10,000 dilution in PBS-T and incubated for an additional hour. Plates were washed 3 times using PBS-T, followed by development using TMB substrate (ThermoFisher), and neutralizing with 0.1 M sulfuric acid. The resulting colorimetric assay was measured at 450 nm using SpectraMax spectrophotometer (Molecular Devices).
(§2) Differential binding of the inducible monovalent antibodies in their prodrug and active forms was determined by comparing the apparent KD of the untreated (prodrug) or the protease-treated (active) forms of the inducible monovalent antibodies to their target antigens in an ELISA assay (results shown in FIG. 4).

[2] = target: T1, CTLA4 (Acro Biosystems), coated on plate; assay: ELISA, CTLA4 coated at 1 µg/ml, detection with anti-human IgG-Fc-peroxidase
Experimental: as §1, §2

T2 sequence (P25942 21-193 limits assumed): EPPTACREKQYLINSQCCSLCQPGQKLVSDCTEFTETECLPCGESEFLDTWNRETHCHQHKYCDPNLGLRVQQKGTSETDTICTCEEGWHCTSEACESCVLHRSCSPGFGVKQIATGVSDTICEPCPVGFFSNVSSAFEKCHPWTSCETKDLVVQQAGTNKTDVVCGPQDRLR

Binder	fold difference in apparent affinity (apparent KD), matriptase-treated against untreated prodrug [1]	fold difference in apparent affinity (apparent KD), matriptase-treated against untreated prodrug [2]
B1	5.1 fold	–
B2	2 fold	–
B3	–	5.3 fold
